In one data set the target is T1, Rad50-K60A (Saccharomyces cerevisiae, UniProt P12753 1-1312, K60A).
T1 sequence: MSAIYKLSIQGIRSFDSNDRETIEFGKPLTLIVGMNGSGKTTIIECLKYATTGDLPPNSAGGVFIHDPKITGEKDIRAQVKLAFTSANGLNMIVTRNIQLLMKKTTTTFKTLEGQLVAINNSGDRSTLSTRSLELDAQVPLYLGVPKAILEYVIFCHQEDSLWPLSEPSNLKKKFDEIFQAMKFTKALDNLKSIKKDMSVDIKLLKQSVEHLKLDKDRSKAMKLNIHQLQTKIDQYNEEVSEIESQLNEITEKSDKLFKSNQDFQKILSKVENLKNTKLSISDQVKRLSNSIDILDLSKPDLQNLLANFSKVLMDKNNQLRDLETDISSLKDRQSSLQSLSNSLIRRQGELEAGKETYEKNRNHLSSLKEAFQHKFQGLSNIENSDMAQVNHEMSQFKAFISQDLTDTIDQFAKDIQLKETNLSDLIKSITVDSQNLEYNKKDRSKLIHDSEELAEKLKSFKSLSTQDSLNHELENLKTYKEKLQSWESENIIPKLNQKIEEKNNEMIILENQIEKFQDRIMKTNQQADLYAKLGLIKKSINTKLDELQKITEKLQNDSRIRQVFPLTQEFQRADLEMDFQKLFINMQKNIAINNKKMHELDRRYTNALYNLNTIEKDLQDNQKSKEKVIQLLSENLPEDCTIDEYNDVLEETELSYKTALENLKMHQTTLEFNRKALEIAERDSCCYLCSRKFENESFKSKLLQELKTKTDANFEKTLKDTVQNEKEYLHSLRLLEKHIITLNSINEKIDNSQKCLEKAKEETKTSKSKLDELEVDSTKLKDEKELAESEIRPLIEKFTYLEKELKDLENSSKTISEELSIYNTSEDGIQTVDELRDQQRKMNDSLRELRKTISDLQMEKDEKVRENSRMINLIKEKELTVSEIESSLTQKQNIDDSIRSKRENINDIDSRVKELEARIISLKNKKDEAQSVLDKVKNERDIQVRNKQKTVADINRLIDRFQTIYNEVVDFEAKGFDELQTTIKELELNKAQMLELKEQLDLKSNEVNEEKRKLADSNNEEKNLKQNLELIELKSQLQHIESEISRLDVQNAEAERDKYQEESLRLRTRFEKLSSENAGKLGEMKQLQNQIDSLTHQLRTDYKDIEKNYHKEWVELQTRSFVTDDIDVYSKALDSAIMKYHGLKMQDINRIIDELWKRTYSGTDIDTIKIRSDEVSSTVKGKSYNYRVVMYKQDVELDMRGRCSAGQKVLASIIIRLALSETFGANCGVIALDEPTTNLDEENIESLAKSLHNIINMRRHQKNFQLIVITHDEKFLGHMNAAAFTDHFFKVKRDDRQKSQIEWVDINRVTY
The data set is described as follows: EMSA.

A further data set concerns the target T2, Rad50-K173A K174A (Saccharomyces cerevisiae, UniProt P12753 1-1312, K173A;K174A).
T2 sequence: T1 sequence with A60K, K173A, K174A
The data set is described as follows: EMSA. For orientation: A gel shift assay detects complexes by their altered migration in electrophoresis.

Numbering of substitutions follows the chain as printed.

B1: 83-mer dsDNA (EMSA) (dsDNA)
DNA 1: TTGATAAGAGGTCATTTTTGCGGATGGCTTAGAGCTTAATTGCTGAATCTGGTGCTGTAGCTCAACATGTTTTAAATATGCAA
DNA 2: TTGCATATTTAAAACATGTTGAGCTACAGCACCAGATTCAGCAATTAAGCTCTAAGCCATCCGCAAAAATGACCTCTTATCAA
With B1, the binding result with Rad50-K60A and in the data set with Rad50-K173A K174A was “binds” throughout.

(Values after publication PMC12343972 (Nature Communications, 2025).)
